This series deals with the molecule itself. Put plainly: cross-linking; 1 µM clathrin hub fragment (wild type or TS-mutant) in PBS with 10 mg/l BS3 for 5 min at temperatures from 26 to 47°C; SDS-PAGE with silver stain or anti-His-tag Western blot. A general note: In western blotting, separated proteins are transferred to a membrane and probed.

B1: human clathrin heavy chain wild type hub fragment (domain or fragment, UniProt Q00610 1074-1675, looked up)
chain: KFDVNTSAVQVLIEHIGNLDRAYEFAERCNEPAVWSQLAKAQLQKGMVKEAIDSYIKADDPSSYMEVVQAANTSGNWEELVKYLQMARKKARESYVETELIFALAKTNRLAELEEFINGPNNAHIQQVGDRCYDEKMYDAAKLLYNNVSNFGRLASTLVHLGEYQAAVDGARKANSTRTWKEVCFACVDGKEFRLAQMCGLHIVVHADELEELINYYQDRGYFEELITMLEAALGLERAHMGMFTELAILYSKFKPQKMREHLELFWSRVNIPKVLRAAEQAHLWAELVFLYDKYEEYDNAIITMMNHPTDAWKEGQFKDIITKVANVELYYRAIQFYLEFKPLLLNDLLMVLSPRLDHTRAVNYFSKVKQLPLVKPYLRSVQNHNNKSVNESLNNLFITEEDYQALRTSIDAYDNFDNISLAQRLEKHELIEFRRIAAYLFKGNNRWKQSVELCKKDSLYKDAMQYASESKDTELAEELLQWFLQEEKRECFGACLFTCYDLLRPDVVLETAWRHNIMDFAMPYFIQVMKEYLTKVDKLDASESLRKEEEQATETQPIVYGQPQLMLTAGPSVAVPPQAPFGYGYTAPPYGQPQPGFGYSM
notes: Clathrin heavy chain, human, C-terminal 'hub' fragment involved in trimerization; The PCR primers encode KFDVNTS... at the start (after a BamHI site) and ...GFGYSM followed by the stop codon at the end (before a HindIII site); Cloned in pET28a between BamHI and HindIII with its own stop codon, so the His tag is probably N-terminal (surmised); also called clathrin-hub fragment; hub fragment (wild …)
Consider B1, for which the binding result is given as “binds”.

B2: human clathrin heavy chain TS-hub fragment (E1584K) (domain or fragment, UniProt Q00610 1074-1675, looked up)
chain: KFDVNTSAVQVLIEHIGNLDRAYEFAERCNEPAVWSQLAKAQLQKGMVKEAIDSYIKADDPSSYMEVVQAANTSGNWEELVKYLQMARKKARESYVETELIFALAKTNRLAELEEFINGPNNAHIQQVGDRCYDEKMYDAAKLLYNNVSNFGRLASTLVHLGEYQAAVDGARKANSTRTWKEVCFACVDGKEFRLAQMCGLHIVVHADELEELINYYQDRGYFEELITMLEAALGLERAHMGMFTELAILYSKFKPQKMREHLELFWSRVNIPKVLRAAEQAHLWAELVFLYDKYEEYDNAIITMMNHPTDAWKEGQFKDIITKVANVELYYRAIQFYLEFKPLLLNDLLMVLSPRLDHTRAVNYFSKVKQLPLVKPYLRSVQNHNNKSVNESLNNLFITEEDYQALRTSIDAYDNFDNISLAQRLEKHELIEFRRIAAYLFKGNNRWKQSVELCKKDSLYKDAMQYASESKDTELAEELLQWFLQEEKRECFGACLFTCYDLLRPDVVLKTAWRHNIMDFAMPYFIQVMKEYLTKVDKLDASESLRKEEEQATETQPIVYGQPQLMLTAGPSVAVPPQAPFGYGYTAPPYGQPQPGFGYSM
notes: Clathrin heavy chain, human, C-terminal 'hub' fragment amplified from the TS-clathrin (E1584K) cDNA; The PCR primers encode KFDVNTS... at the start and ...GFGYSM followed by the stop codon at the end; Same construct as m1 but with the temperature-sensitive point mutation E1584K. pET28a, so the His tag is probably N-terminal (surmised); also called clathrin hub fragment TS-mutant; pET28a human …
Take B2: the binding result is listed as “binds”.

Source of the values: PMC2917355, “Characterization of a Temperature-Sensitive Vertebrate Clathrin Heavy Chain Mutant as a Tool to Study Clathrin-Dependent Events In Vivo” (PLoS ONE, 2010).
